Assay results reported in doi:10.1101/2020.05.06.080622.
Read-outs that look alike come from different tables or passages of the source.

What was measured:
Assay in all cases: EMSA
[1] = target: T1, G4P (HIS-G4P-3xFLAG) (artificial (RHAU-derived), UniProt Q9H2U1 53-75+=GTGSGAGTGSGAGTGSGA+53-75, internal_change)
T1 sequence: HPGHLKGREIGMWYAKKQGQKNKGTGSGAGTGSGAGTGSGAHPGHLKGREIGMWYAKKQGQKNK

[2] = target: T1, G4P (HIS-G4P-3xFLAG); remark: listed apart in the source
[3] = target: T1, G4P (HIS-G4P-3xFLAG); remark: listed apart in the source

B1: C9orf72 (structured_DNA)
DNA: GGGGCCGGGGCCGGGGCCGGGGCC
binding result [1]: binds

B2: PDGFR-β (structured_DNA)
DNA: AAGGGAGGGCGGCGGGGCAGGGA
binding result [2]: binds

B3: dsCSTB (dsDNA)
DNA 1: CCTGAAGCAGACAGCTAGTGAATTCGGGGCGGGGCGCGGGGCGGGGTACTTGCGTATAACTGTTCCATAGT
DNA 2: ACTATGGAACAGTTATACGCAAGTACCCCGCCCCGCGCCCCGCCCCGAATTCACTAGCTGTCTGCTTCAGG
binding result [3]: binds
